Measurements reported in patent publication US20240400614A1, “CLEAVABLE PEPTIDES AND METHODS OF USE THEREOF” (Bright Peak Therapeutics AG, priority 2023, published 2024).
Square brackets hold non-standard residues; d marks the D form. Ends that are not written are not given here. Tyr(3-NO2) = N[C@@H](Cc1ccc(O)c([N+](=O)[O-])c1)C(=O)O; Nle = CCCC[C@H](N)C(=O)O; 2Abz = Nc1ccccc1C(=O)O

Key:
Format in all cases: biochemical
[1] = molecular target: uPA (Homo sapiens, UniProt P00749); assay: FRET peptide cleavage efficiency with uPA
[2] = molecular target: T1, MMP-9 (Homo sapiens, UniProt P14780); assay: FRET peptide cleavage efficiency with MMP-9 (standard pH 7.5; also pH 6.5)
T1 construct: purchased SIGMA PF024
T1 sequence (P14780 94-707): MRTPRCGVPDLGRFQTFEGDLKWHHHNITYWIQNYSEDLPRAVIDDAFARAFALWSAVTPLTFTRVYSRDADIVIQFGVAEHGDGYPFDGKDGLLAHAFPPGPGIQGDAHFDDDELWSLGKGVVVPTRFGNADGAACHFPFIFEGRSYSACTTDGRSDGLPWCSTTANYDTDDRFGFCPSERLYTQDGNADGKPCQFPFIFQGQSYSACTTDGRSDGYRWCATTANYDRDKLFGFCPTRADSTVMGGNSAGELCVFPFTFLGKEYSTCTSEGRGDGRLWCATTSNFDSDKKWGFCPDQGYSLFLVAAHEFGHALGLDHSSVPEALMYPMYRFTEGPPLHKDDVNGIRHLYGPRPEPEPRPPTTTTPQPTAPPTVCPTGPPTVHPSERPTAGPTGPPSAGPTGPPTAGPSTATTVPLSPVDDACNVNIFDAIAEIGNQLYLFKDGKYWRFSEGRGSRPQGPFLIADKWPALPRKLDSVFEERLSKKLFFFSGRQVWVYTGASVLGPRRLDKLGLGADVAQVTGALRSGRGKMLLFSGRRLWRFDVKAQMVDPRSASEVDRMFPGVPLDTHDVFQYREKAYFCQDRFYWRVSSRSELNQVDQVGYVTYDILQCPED

[3] = molecular target: T2, MMP-2 (Homo sapiens, UniProt P08253); assay: FRET peptide cleavage efficiency with MMP-2
T2 construct: purchased SIGMA PF023
T2 sequence (P08253 110-660): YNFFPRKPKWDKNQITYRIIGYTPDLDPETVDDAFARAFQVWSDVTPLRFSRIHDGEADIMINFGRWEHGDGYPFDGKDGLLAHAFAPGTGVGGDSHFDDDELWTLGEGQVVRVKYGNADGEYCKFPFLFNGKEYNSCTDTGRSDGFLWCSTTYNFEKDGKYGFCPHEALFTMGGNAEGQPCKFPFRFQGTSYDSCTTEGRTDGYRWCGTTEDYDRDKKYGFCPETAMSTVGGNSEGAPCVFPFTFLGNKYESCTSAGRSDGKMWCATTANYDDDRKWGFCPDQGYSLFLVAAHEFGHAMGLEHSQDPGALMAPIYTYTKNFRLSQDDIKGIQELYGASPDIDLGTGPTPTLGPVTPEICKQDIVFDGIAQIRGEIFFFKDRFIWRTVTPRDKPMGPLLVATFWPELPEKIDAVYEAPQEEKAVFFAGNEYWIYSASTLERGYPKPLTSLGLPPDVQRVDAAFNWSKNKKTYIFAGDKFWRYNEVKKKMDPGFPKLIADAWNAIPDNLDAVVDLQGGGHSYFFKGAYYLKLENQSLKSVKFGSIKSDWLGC

[4] = molecular target: T3, matriptase (Homo sapiens, UniProt Q9Y5Y6); assay: FRET peptide cleavage efficiency with matriptase
T3 construct: purchased R&D Systems 3946-SEB
T3 sequence (Q9Y5Y6 615-855 limits assumed): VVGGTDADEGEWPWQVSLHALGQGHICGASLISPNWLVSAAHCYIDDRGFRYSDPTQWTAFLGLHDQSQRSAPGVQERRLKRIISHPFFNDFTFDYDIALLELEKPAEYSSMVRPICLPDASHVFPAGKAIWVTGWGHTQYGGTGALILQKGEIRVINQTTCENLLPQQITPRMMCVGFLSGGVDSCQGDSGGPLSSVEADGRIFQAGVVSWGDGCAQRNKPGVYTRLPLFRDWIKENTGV

[5] = molecular target: T4, MMP-7 (Homo sapiens, UniProt P09237); assay: FRET peptide cleavage efficiency with MMP-7 (standard pH 7.5; also pH 6.5)
T4 construct: purchased SIGMA CC1059
T4 sequence (P09237 95-267): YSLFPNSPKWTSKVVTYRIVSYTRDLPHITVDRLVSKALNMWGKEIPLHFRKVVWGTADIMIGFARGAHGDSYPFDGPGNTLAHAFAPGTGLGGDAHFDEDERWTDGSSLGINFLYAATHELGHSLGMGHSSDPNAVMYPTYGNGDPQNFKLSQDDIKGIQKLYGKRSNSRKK

[6] = 200 uM linker, 1 ug/ml protease, 37° C., buffer A pH 8.5
[7] = t = 60 min, 200 uM linker, 1 ug/ml protease, 37° C., buffer A pH 8.5
[8] = t = 120 min, 200 uM linker, 1 ug/ml protease, 37° C., buffer A pH 8.5
[9] = t = 15 min, 200 uM linker, 1 ug/ml protease, 37° C., buffer C pH 7.5
[10] = t = 60 min, 200 uM linker, 1 ug/ml protease, 37° C., buffer C pH 7.5
[11] = t = 120 min, 200 uM linker, 1 ug/ml protease, 37° C., buffer C pH 7.5
[12] = t = 15 min, 200 uM linker, 1 ug/ml protease, 37° C., buffer B pH 9.0
[13] = t = 60 min, 200 uM linker, 1 ug/ml protease, 37° C., buffer B pH 9.0
[14] = 200 uM linker, 1 ug/ml protease, 37° C., buffer B pH 9.0
[15] = t = 60 min, standard conditions (Table 8)
[16] = t = 120 min, standard conditions (Table 8)
[17] = t = 15 min, standard conditions (Table 8)

Substance | % cleavage uPA t = 15 min [1, 6] [%] | % cleavage uPA t = 60 min [1, 7] [%] | % cleavage uPA t = 120 min [1, 8] [%] | % cleavage MMP-9 t = 15 min ([2]; t = 15 min (Table 9)) [%] | % cleavage MMP-9 t = 60 min ([2]; t = 60 min (Table 9)) [%] | % cleavage MMP-9 t = 120 min ([2]; t = 120 min (Table 9)) [%] | % cleavage MMP-2 t = 15 min ([3]; t = 15 min (Table 9)) [%] | % cleavage MMP-2 t = 15 min [3, 9] [%] | % cleavage MMP-2 t = 60 min ([3]; t = 60 min (Table 9)) [%] | % cleavage MMP-2 t = 60 min [3, 10] [%] | % cleavage MMP-2 t = 120 min ([3]; t = 120 min (Table 9)) [%] | % cleavage MMP-2 t = 120 min [3, 11] [%] | % cleavage Matriptase t = 15 min [4, 12] [%] | % cleavage Matriptase t = 60 min [4, 13] [%] | % cleavage Matriptase t = 120 min [4, 14] [%] | % cleavage MMP-7 t = 15 min ([5]; t = 15 min (Table 9)) [%] | % cleavage MMP-7 t = 60 min ([5]; t = 60 min (Table 9)) [%] | % cleavage MMP-7 t = 120 min ([5]; t = 120 min (Table 9)) [%] | % vcleavage uPA t = 15 min ([1]; standard conditions (Table 8)) [%] | % cleavage uPA t = 60 min [1, 15] [%] | further results
RGRRSGRAANLVRPLGYFGKL ([2Abz]RGRRSGRAANLVRPLGYFGKL[Tyr(3-NO2)]-NH2) [LNK059] | 67 | 100 | 100 | 39 | 100 | 100 | 77 | 77 | 100 | 100 | 100 | 100 | 76 | 100 | 100 | 0 | 0 | 0 | – | – | –
SGRVY-Nle-LQG ([2Abz]SGRVY[Nle]LQG[Tyr(3-NO2)]-NH2) [LNK045] | – | – | – | 0 | 0 | 0 | 0 | – | 0 | – | 0 | – | – | – | – | 0 | 0 | 0 | 0 | 0 | % cleavage uPA t = 120 min [1, 16]: 0%; % cleavage MMP-9 t = 15 min [2, 17]: 0%; % cleavage MMP-9 t = 60 min [2, 15]: 0%; % cleavage MMP-9 t = 120 min [2, 16]: 0%; % cleavage MMP-2 t = 60 min [3, 15]: 0%; % cleavage MMP-2 t = 120 min [3, 16]: 0%; % cleavage Matriptase t = 15 min [4, 17]: 0%; % cleavage Matriptase t = 60 min [4, 15]: 0%; % cleavage Matriptase t = 120 min ([4]; standard conditions (Table 8)): 0%; % cleavage MMP-7 t = 15 min [5, 17]: 0%; % cleavage MMP-7 t = 60 min [5, 15]: 0%; % cleavage MMP-7 t = 120 min [5, 16]: 0%
RGRKVANLVG ([2Abz]RGRKVANLVG[Tyr(3-NO2)]-NH2) [LNK031] | – | – | – | 75 | 100 | 100 | 77 | – | 100 | – | 100 | – | – | – | – | 22 | 74 | 93 | 1 | 1 | % cleavage uPA t = 120 min [1, 16]: 2%; % cleavage MMP-9 t = 15 min [2, 17]: 75%; % cleavage MMP-9 t = 60 min [2, 15]: 100%; % cleavage MMP-9 t = 120 min [2, 16]: 100%; % cleavage MMP-2 t = 60 min [3, 15]: 100%; % cleavage MMP-2 t = 120 min [3, 16]: 100%; % cleavage Matriptase t = 15 min [4, 17]: 99%; % cleavage Matriptase t = 60 min [4, 15]: 100%; % cleavage Matriptase t = 120 min ([4]; standard conditions (Table 8)): 100%; % cleavage MMP-7 t = 15 min [5, 17]: 22%; % cleavage MMP-7 t = 60 min [5, 15]: 74%; % cleavage MMP-7 t = 120 min [5, 16]: 93%
RGRKSPANLVG ([2Abz]RGRKSPANLVG[Tyr(3-NO2)]-NH2) [LNK034] | – | – | – | 100 | 100 | 100 | 92 | – | 100 | – | 100 | – | – | – | – | 32 | 89 | 100 | 0 | 0 | % cleavage uPA t = 120 min [1, 16]: 0%; % cleavage MMP-9 t = 15 min [2, 17]: 100%; % cleavage MMP-9 t = 60 min [2, 15]: 100%; % cleavage MMP-9 t = 120 min [2, 16]: 100%; % cleavage MMP-2 t = 60 min [3, 15]: 100%; % cleavage MMP-2 t = 120 min [3, 16]: 100%; % cleavage Matriptase t = 15 min [4, 17]: 100%; % cleavage Matriptase t = 60 min [4, 15]: 100%; % cleavage Matriptase t = 120 min ([4]; standard conditions (Table 8)): 100%; % cleavage MMP-7 t = 15 min [5, 17]: 32%; % cleavage MMP-7 t = 60 min [5, 15]: 89%; % cleavage MMP-7 t = 120 min [5, 16]: 100%
SSRGPYMLQG ([2Abz]SSRGPYMLQG[Tyr(3-NO2)]-NH2) [LNK022] | 0 | 1 | 3 | 63 | 99 | 100 | 27 | 31 | 79 | 81 | 94 | 96 | 8 | 9 | 11 | 40 | 0 | 100 | – | – | % cleavage uPA t = 60 min ([1]; pH 6.5, t = 60 min (Table 7)): 0%; % cleavage uPA t = 120 min ([1]; pH 6.5, t = 120 min (Table 7)): 0%; % cleavage uPA t = 60 min ([1]; pH 7.5, t = 60 min (Table 7)): 0%; % cleavage uPA t = 120 min ([1]; pH 7.5, t = 120 min (Table 7)): 0%; % cleavage MMP-2 t = 15 min ([3]; pH 6.5, t = 15 min (Table 7)): 32%; % cleavage MMP-2 t = 60 min ([3]; pH 6.5, t = 60 min (Table 7)): 74%; % cleavage MMP-2 t = 15 min ([3]; pH 7.5, t = 15 min (Table 7)): 36%; % cleavage MMP-2 t = 60 min ([3]; pH 7.5, t = 60 min (Table 7)): 84%; % cleavage Matriptase t = 15 min ([4]; pH 6.5, t = 15 min (Table 7)): 0%; % cleavage Matriptase t = 60 min ([4]; pH 6.5, t = 60 min (Table 7)): 0%; % cleavage Matriptase t = 15 min ([4]; pH 7.5, t = 15 min (Table 7)): 0%; % cleavage Matriptase t = 60 min ([4]; pH 7.5, t = 60 min (Table 7)): 0%
RGRRVANPLGLAGSG ([2Abz]RGRRVANPLGLAGSG[Tyr(3-NO2)]-NH2) [LNK050] | 1 | 3 | 6 | 52 | 100 | 100 | 54 | 54 | 100 | 100 | 100 | 100 | 78 | 100 | 100 | 1 | 3 | 6 | – | – | –
